Assay results from publication PMC8780415.

Experiments:
Assay in all cases: flow cytometry on cells
[1] = biological target: SR-B1-GFP fusion protein (scavenger receptor class B type 1) (UniProt Q8WTV0)
[2] = biological target: NTCP-GFP fusion protein (sodium taurocholate cotransporting polypeptide) (UniProt Q14973)
[3] = biological target: Biotinylated Myr47 (myristoylated pre-S1 peptide); conditions: HEK293T cells transiently transfected; GFP+ gate; 10,000 cells; triplicate assays; mean and standard error; Myr47 binding examined at 4 °C; parent: est. 13; read off a plot

UniProt Q8WTV0, sequence (Q8WTV0 whole entry, the tested form may be a part): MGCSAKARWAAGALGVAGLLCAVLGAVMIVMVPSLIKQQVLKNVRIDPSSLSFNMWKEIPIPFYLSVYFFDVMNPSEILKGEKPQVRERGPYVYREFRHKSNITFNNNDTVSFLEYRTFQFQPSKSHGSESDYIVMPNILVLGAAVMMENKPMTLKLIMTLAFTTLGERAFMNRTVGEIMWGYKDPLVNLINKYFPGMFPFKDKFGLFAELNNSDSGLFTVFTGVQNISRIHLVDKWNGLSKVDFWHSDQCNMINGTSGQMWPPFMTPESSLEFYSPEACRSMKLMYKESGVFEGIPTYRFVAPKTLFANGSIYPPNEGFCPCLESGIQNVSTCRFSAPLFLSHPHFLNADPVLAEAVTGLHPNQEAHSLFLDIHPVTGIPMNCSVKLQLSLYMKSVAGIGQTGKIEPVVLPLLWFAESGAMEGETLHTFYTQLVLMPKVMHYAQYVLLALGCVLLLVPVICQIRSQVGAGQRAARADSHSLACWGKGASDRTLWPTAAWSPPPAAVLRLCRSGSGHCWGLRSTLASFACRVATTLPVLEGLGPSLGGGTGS
UniProt Q14973, sequence (Q14973 whole entry, the tested form may be a part): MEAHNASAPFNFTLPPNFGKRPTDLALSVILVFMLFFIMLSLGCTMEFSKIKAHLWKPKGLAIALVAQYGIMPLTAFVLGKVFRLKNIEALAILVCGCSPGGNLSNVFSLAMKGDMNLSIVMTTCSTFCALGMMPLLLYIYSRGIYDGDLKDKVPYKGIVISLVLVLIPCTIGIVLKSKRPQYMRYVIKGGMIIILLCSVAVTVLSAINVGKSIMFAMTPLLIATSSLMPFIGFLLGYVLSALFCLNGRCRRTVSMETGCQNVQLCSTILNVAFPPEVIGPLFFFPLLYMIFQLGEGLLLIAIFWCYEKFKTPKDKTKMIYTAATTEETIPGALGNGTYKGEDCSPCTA

| Substance | fold binding over GFP control cells [1] | fold binding over GFP control cells [2] | response [3] |
| --- | --- | --- | --- |
| Biotinylated Myr47 (myristoylated pre-S1 peptide) | 2.8 fold | 3.4 fold | – |
| SR-B1-GFP fusion protein (scavenger receptor class B type 1) (from UniProt Q8WTV0) K151A | – | – | 10 FI × 10^3 |
| SR-B1-GFP fusion protein (scavenger receptor class B type 1) (from UniProt Q8WTV0) K156A | – | – | 5.8 FI × 10^3 |
| SR-B1-GFP fusion protein (scavenger receptor class B type 1) (from UniProt Q8WTV0) M441A; L448A; L455A | – | – | 10 FI × 10^3 |
| SR-B1-GFP fusion protein (scavenger receptor class B type 1) (from UniProt Q8WTV0) S112F | – | – | 5.3 FI × 10^3 |
| SR-B1-GFP fusion protein (scavenger receptor class B type 1) (from UniProt Q8WTV0) T175A | – | – | 5.7 FI × 10^3 |
| Yeast-derived nanoparticles containing L protein (bio-nanocapsules, BNCs) | 9.2 fold | – | – |
